Laboratory results from paper PMC11915506.
Like-named read-outs stand apart in the source and are kept apart here.

Key:
[1] = target: Peltigera membranacea cyanobiont 210A (Pmc) TnsC (Peltigera membranacea cyanobiont 210A); test: cryo-EM structure
[2] = target: Peltigera membranacea cyanobiont 210A (Pmc) TnsC (Peltigera membranacea cyanobiont 210A); test: cryo-EM structure; remark: listed apart in the source

- stoichiometry N [1]: 7
- stoichiometry N [2]: 7
Substance: Peltigera membranacea cyanobiont 210A (Pmc) TnsC (natural protein)
